# Measurements: publication doi:10.1101/2024.03.15.585201 (bioRxiv, 2024)
# B1: BmrA E504A mutant (natural protein)
# chain: MPTKKQKSKSKLKPFFALVRRTNPSYGKLAFALALSVVTTLVSLLIPLLTKQLVDGFSMSNLSGTQIGLIALVFFVQAGLSAYATYALNYNGQKIISGLRELLWKKLIKLPVSYFDTNASGETVSRVTNDTMVVKELITTHISGFITGIISVIGSLTILFIMNWKLTLLVLVVVPLAALILVPIGRKMFSISRETQDETARFTGLLNQILPEIRLVKASNAEDVEYGRGKMGISSLFKLGVREAKVQSLVGPLISLVLMAALVAVIGYGGMQVSSGELTAGALVAFILYLFQIIMPMGQITTFFTQLQKSIGATERMIEILAEEEEDTVTGKQIENAHLPIQLDRVSFGYKPDQLILKEVSAVIEAGKVTAIVGPSGGGKTTLFKLLERFYSPTAGTIRLGDEPVDTYSLESWREHIGYVSQESPLMSGTIRENICYGLERDVTDAEIEKAAEMAYALNFIKELPNQFDTEVGERGIMLSGGQRQRIAIARALLRNPSILMLDAATSSLDSQSEKSVQQALEVLMEGRTTIVIAHRLSTVVDADQLLFVEKGEITGRGTHHELMASHGLYRDFAEQQLKMNADLENKAG
# Target: the molecule itself
# Experiment: cryo-EM structure
protein,measurement,value
B1,stoichiometry N,2
